Biological target: T1, HIS-GST-Nxf3 (66-336), RRM-LRR domain (Drosophila melanogaster, UniProt Q8IQK4 66-336)
T1 sequence: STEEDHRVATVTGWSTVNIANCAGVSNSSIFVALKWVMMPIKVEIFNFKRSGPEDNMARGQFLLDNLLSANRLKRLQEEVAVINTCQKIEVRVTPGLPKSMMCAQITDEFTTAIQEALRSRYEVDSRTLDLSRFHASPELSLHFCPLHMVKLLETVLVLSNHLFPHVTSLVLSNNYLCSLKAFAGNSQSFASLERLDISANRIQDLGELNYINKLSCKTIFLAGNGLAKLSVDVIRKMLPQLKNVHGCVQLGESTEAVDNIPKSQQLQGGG
Assay: EMSA

## CUCAUCUUGGUCGUACGCGGAAUAGUUUAAACUGU (ssRNA) [35 nt ssRNA]
  binding result: binds

— paper doi:10.1101/596171
